The values below come from PMC3605390, “Characterisation of ATP-Dependent Mur Ligases Involved in the Biogenesis of Cell Wall Peptidoglycan in Mycobacterium tuberculosis” (PLoS ONE, 2013).

The test system of data set [1] is CC(=O)N[C@H]1[C@@H](OP(=O)(O)OP(=O)(O)OC[C@H]2O[C@@H](n3ccc(=O)[nH]c3=O)[C@H](O)[C@@H]2O)O[C@H](CO)[C@@H](O)[C@@H]1O[C@H](C)C(=O)N[C@@H](C)C(=O)N[C@H](CCC(=O)N[C@@H](CCC[C@@H](N)C(=O)O)C(=O)O)C(=O)O. Briefly: purified protein. Particulars: pH 8.5; 37.0 °C.
The subject of data set [2] is C[C@@H](N)C(=O)N[C@H](C)C(=O)O. Description: purified protein. The following applies: pH 8.5; 37.0 °C.

For the substance MurF (Mycobacterium tuberculosis H37Rv), in data set [1], the Michaelis constant (Km) (as a rule, the substrate concentration at which the rate is half of its maximum) is 64.5 ± 0.2 µM and the specificity constant (kcat/Km) (usually the second-order rate constant that governs catalysis at low substrate concentration) was determined as 21700 ± 200 M⁻¹ s⁻¹. Further, in data set [2], the Km was 78.1 ± 0.2 µM and the catalytic efficiency (kcat/Km) is 18100 ± 300 M⁻¹ s⁻¹.
